Assay: label from the status in PepcDB records

Row | Sequence | protein production
1 | MPFTLHLRSRLPSAIRSLILQKKPNIRNTSSMAGELRPASLVVLPRSLAPAFERFCQVNTGPLPLLGQSEPEKRMLPPQGAISETRMGHPQFWKYEFGACTGSLASLEQYSEQLKDMVAFFLGCSFSLEEALEKAGLPRRDPAGHSQAGAYKTTVPCVTHAGFCCPLVVTMRPIPKDKLEGLVRACCSLGGEQGQPVHMGDPELLGIKELSKPAYGDAMVCPPGEVPVFWPSPLTSLGAVSSCETPLAFASIPGCTVMTDLKDAKAPPGCLTPERIPEVHHISQDPLHYSIASVSASQKIRELESMIGIDPGNRGIGHLLCKDELLKASLSLSHARSVLITTGFPTHFNHEPPEETDGPPGAVALVAFLQALEKEVAIIVDQRAWNLHQKIVEDAVEQGVLKTQIPILTYQGGSVEAAQAFLCKNGDPQTPRFDHLVAIERAGRAADGNYYNARKMNIKHLVDPIDDLFLAAKKIPGISSTGVGDGGNELGMGKVKEAVRRHIRHGDVIACDVEADFAVIAGVSNWGGYALACALYILYSCAVHSQYLRKAVGPSRAPGDQAWTQALPSVIKEEKMLGILVQHKVRSGVSGIVGMEVDGLPFHNTHAEMIQKLVDVTTAQV | failed
2 | MPFTPVDWAILGIVAISALISLKRGFVKEALSLTTWIIAGVVAWMFGAGLSQYLVNYIETPSARVIASCTILFVATLLVGAMVNFLIGELIRVTGLSGTDRFLGMVFGAARGGLLVVVAVGLLSLGPVQQDQWWQQSRLVPQFLIVADWSKNLILGMSSKWLASGISVPADLPFKEQILPPTLPQDVLGKSSSTK | failed
3 | MPFVAVATCLSPLIICYPQNRTMECDLLMIKIEKVINKNDLKAFIAFPSSLYPDDPNWIPPLFIERNEHLSAKNPGTDHIIWQAWVAKKAGQIVGRITAQIDTLHRERYGKDTGHFGMIDAIDDPQVFAALFGAAEAWLKSQGASKISGPFSLNINQESGLLIEGFDTPPCAMMPHGKPWYAAHIEQLGYHKGIDLLAWWMQRTDLTFSPALKKLMDQVRKKVTIRCINRQRFAEEMQILREIFNSGWQHNWGFVPFTEHEFATMGDQLKYLVPDDMIYIAEIDSAPCAFIVGLPNINEAIADLNGSLFPFGWAKLLWRLKVSGVRTARVPLMGVRDEYQFSRIGPVIALLLIEALRDPFARRKIDALEMSWILETNTGMNNMLERIGAEPYKRYRLYEKQI | failed
4 | MPGAVDFKERISRQRPHDRETYGHAGNTDLQDIVYQLESDRGRIVNSAAVRRLQQKTQVFPLERNAAVRSRLTHSLEVQQTGRFIVRTLFRQLGPRAAEVGLDGLEGALESLVEMACLMHDVGNPPFGHFGEYAINDWFERNLDALFERRIPPGQGDGLLQQRMLTDLKHFEGNAQAIRLVVKLLRLNLTYTQTAGLLKYVRPAYEPKPDKAAANHYLNKKPGFYLSEEAFVDELRRVLGMRPGTRHPVAYIMEAADDISYCLADIEDSVEKGILDIRQLADLLVKKFAVHHSPDAPIPGDADNMSFQRMVDYSLEKAEREPINKVSEFFIRLRVKMIHPLVQHAAQQFIDNFEAVHAGTLGRALMEDGSLPHAIVQTFKDVAMEWVFCHPEVETLELQGYRIIQGLLDFYAPLLRLPAEEFQALAEGRQAAAPHPQLLVRRLPSQQIKAYLEAMKGVAEDPLQRQWEFYHRCRMLQDFVSGMTDQHAQDEYRALSA | failed
5 | MPGDTENTSTDTTNEHIDLALYRQLVKQFIDMRRYSTALFWAEKVAVLGGLEPRDIYYQAQCMYLLGEYHRAAHTIQHHKLEKNSLPCFNLLLESLYAAKEFTEAANVIQNVEVEVMTTSLINQPVDASSGCYLESNSVFGGEENHRNELLSSIYLMKGKVYEALDNRGMAMDFYVQALHKSIYCFEALEALVQHEMLMAWEEFELMHHLPLAQQSSEADAKFILKLYESRLKKYYELISARNAEEMSPIVNPDILQFIKEFTARVQQSGSSDTQMPKVSAVKVPLTPSQFMSPAQKVLEDLKAPTFSLQTSLSKASSLIDASHRSMFDSSSRRRSRDHDTDTLIPIAECLDRVQRSTDLMAAEAEKCFYDCDYKQCLKILNELLKVDPFHNTALTIQIACLVENGDFNRLFYVAHKLVDRYPDKAISWYAVGCYYDMIGKSDPARRYLSKATALDRLYGPAWLAYGHSFANENEHEQAMAAYFKATQLMRGCHLPLLYIGVECGLTKNLELAEKFFLQAMNIAPLDVYVLHELGVIKYEYEFFDGAATIFQCTVDIVKQRAKSNNEEISSRWEPLFINLGHSLRKVHKYEEALYNFQYALLLKPQSPTTYTSIGFIHALLGNLDPAIEAFHKSLALNRDCIVTSTILKSCIEDLMDDSATIDEICSAALRDVAKNITANSRRVLNSDKFNGMKLKFDEEEEFANSDSNMVVEMSFDT | failed
6 | MPGEEVSQAKQQLKLIIDAYLSESDVDNVLAACDFADLAHSGITRKSGEPYILHPIAVSCILAHMRLDAETLMAALLHDVIEDTEHTKDEIGERFGEVVADLVDGVTKLTHSSDKQYNKAASFRKILQATLQDPRVIIIKLADRYHNMTTLDALRPDKRARIAQETFDIFVPMARIVGMNEMGDNLELLCYQNLDLDMYNNVQEALLETKPRRCEYQTKWEHHLGELLTTYHIHGRVKKKNNNIELLRHFVKNEIDLQELTHSHAFEIILNSISDCDRLVDALKENFQILHFEDHIRRPLPGGNQSIMMKLKGEQTTLSLTIQTELMRKAARFGVVLGENAPQACRSAIQASMQNLTTLIDGECAKTTFNDLLDYLHQEKIWVYTPHGHLHELPQGATVIDFAYSASLFLGNHAVGAKIDGEIRPLSTPLVSGQVIDVITDVLATPNPDWLSFINTQKARRAIQNMLRDQDIEEQLLVGQQALNRALKLFNRSMHDLSESDWLNVLQWRHVENKEALFEQIAVGDLLPQLVANHLYAQDTSDKTGHAPDRLIQGTEGVDVKYAHCCNPILGDPIQGHLSRRGLIVHRARCHNLLHEQHLHPENIMPLQWTSDDLDDVSFTAYLCIDMPLDGEQISELIYLCRKSHTGVEMVQPHGDHTYVNIVVNNRKVVAQIIRDLRMLFGFPRVSRLFTPAAVTESVKIKVS | failed
7 | MPGESNIIEWPASRVRVISGASWSRNGQILSGRCKANNGTWFGITKGGRVAFLVNTSLLLDRVKSYSGSELYPVRFLEGNMSPEQFANEVKVHEKETNERHAYSLVVADMTSSSMVHILKPSDTKSDVVIETVPFGVHTLSSYEGLDSTDSARDLLLRRLFTQMVGNLGNVQQRQMEEIAGRFMYDAQAGRDAVFYHSRDEHPNGKLGTQRFGTTSTTALVVKRTREVMLFEKYMEQNGAWNTNNFAFNIQKQQKLYPNLDKEALKRVGVFALEEVNNHEHDIHPDLMPSFFEDDMLKVKFNEMIARHAKLPPIKNIVEDLMMKSPFFIDSVDGAGKKVRYRTVRTLGMDIKANRPQGRFYERHLNDNGEWVG | failed
8 | MPGIKVHPNESFDEAYRKFKKQVDRNLVVTEVRARRFFEPMTEIRKKQKISARKKMLKRLYMLRRYESRLLEHHHHHH | failed
9 | MPGKLTATILTRNEAANIGDCIDSLAQLADEVIVLDSGSTDATRDIARARGANVIEDDGPWPGFGPQKNRALDRATGEWVLSIDADERVPPELAQEIRTAMARADADAYAIPRLSQFCGAWVHHSGWRPDHVIRLFRRGKARFSENLVHESLQVTGNVARLRTSLLHYSYTSMDQVHRKSAQYAEAGARDLTQRGKHIGALSPVLHGTWAFVRTLVLRRGFLDGGTGLAIARMNATVSYRKYRRARELASGANHRPLEHHHHHH | failed
10 | MPGSALKYRDLRDFLAQLERQGELKRITAPVSTRLEMTEIADRVLRAGGPALLFENARHNDAPADMPVLANLFGTPRRVAWGMGADDVGALRETGELLASLREPEAPKGLRDALAKVSMLKAALWDMSPKTVRSAACQEIVWEGADVELSRLPIQTCWPGDVAPLLAWGLVITRGPNARRQNLGIYRQQPLGPNKLIMRWLSHRGGALDFRDHAQAHPGKPFPITVALGADPATILGAVTPVPDTLSEYQFAGLLRGSRTEVVKALGSDLSVPASAEIVLEGHLLPADDPRAVAAVVPEGANPPPATGYEMALEGPYGDHTGYYNEQDWFPVFTVDRITMRRNPIYHSTYTGKPPDEPAVLGVALNEVFVPLLRRQLPEIVDFYLPPEGCSYRLAVVSIRKQYAGHAKRVMFGLWSVLRQFMYTKFIVVVDEDIDPRDWTEVVWAMTTRMDPVRDTVLVENAPIDYLDFASPVSGLGGKMGLDATNKWPGETSREWGTPIHMDEAVKRRVDAMWDTLGLLEHHHHHH | failed
11 | MPGTKQVNVGSLKVGQYVMIDGVPCEIVDISVSKPGKHGGAKARVVGIGIFEKVKKEFVAPTSSKVEVPIIDRRKGQVLAIMGDMVQIMDLQTYETLELPIPEGIEGLEPGGEVEYIEAVGQYKITRVIGGK | not failed
12 | MPHASQIVISISLFLMSMVAVAQKTIDIKKFNLVAEQVTELKKTDLVLSLKQLTTFENVLSALTVEQNLVYFKLLAEIQIEQNRYSAAKKTANEGLIIGRRLASPSILMSELLYLRGFSFESLGNIPRATKEYKKGLEVAESLHNKIQVALGLINLGAIAYLTDNYKRSLVLLNDAYNIAGQTDDEELKGTANTELGILYSLLRQGDQSMAYYQQSYKHFKKAGLLLSAHNSLHNIAITHIREKRYEQAITVFKTIIAESNKDTSSDSMFTVYSGMAWAHLKKKDSNIDAAHQYLLLAKQYLQFTEKVDYRLQFYFDEASVLYKLERFDEVLISIARIEKILVNHEDMPKRKRKGYVNIINLKAKVFYKQEKFKQAYETKSRVIALTEKLYENEDNRSIAQVRLKLEAEQADKQNEILNNQKSRYEASFNEAKLENEEQRIYLIISALLALAFAWVLVKLIQSQKKLKVALNVDKLTGTANRRRLMVKSQQAFELAKVKQYHLSLMMINIDHFKGINDSLGHSIGDEVLAKVAFIGANMVRKNDVFGRFSGGEFMVCLPKTNLKLAMETAECIRAAINEHTWQLNNIEKISVSIGVATLTDDSELISLVKRAEEQLYQAKASGKNKVCAQ | failed
13 | MPHELSWGDIYFSPTLLVLFLAVTATWITVMILNKTRLSRFIAFPSLTFIAIMVGYVVAIDSFYIQF | failed
14 | MPHFLAKLDFKPLEYPLIEGDFCFHREFLSLKNPTKSCVYASFKDRIFLLQKIRRANDFLIKSEKATPLKREVLKQALRIYSQSFEVISHNLQENSKHASGKKTLDLGTFEDFIQKNQAPILIEIGFGSGRHLIELAKNNPTKTCLGIEIHTPSIAQALKQIELLDLKNLHILQGDGRLVLESMPNHRCEKIFVHFPVPWNEKKHRRVLSEKFLNEALRVLKPRGFLELRTDDSLYFEDSLKLALKNFQCEIEIKKNAQIPVVSKYEARWNKLKKDIYDLRIYSLEWNETPFDNHAFDFSFDTITISKKSVGTILKTKKIIQEGYFVHVCNIYENKGDFLVELSMGDFDWPVRLFVLLTENQIFYLNKSPLKTLNNHKAHLLLQNILSQKGIG | failed
15 | MPHGVEVEPGVAKLTTYASKQATDMGAIYVNSKGDRIVNESNVYTTFRNAILKQADKVAYLVMDERTWKKVYDLLILHDFTPEEIKSFFENKGKRPVFVKGSLESAAEQAGIVVDELVQTVKNYQGYVQDGHDHDFGRDPKYLHQFEGETFYIIEQRLEHHHHHH | not failed
16 | MPHPATMFLLLTMAVVFLSWICDIYGLKVTLPQSGEDIRVQSLLSPEGIRWWLRNAIKNFTGFAPLGMVIIAMFGLGVAQHSGFIDACIRLGVGNRKEKRKVILWVIVLGLLSNVIGDGGYIILLPIAAMLFQWVGLHPIAGIVTAYVSVACGYSANIVLSTMDPLLAHTTQEAALTLMGYQGNTEPLCNYFFMSASTVVITGIVYWVTQKWLLPNLGKYEGSVKVEAYRPLSRKERRALMVAVVVAGIYVALILWLTFSSYGILRGVNGGLMHSPFIAGILFLLSLGAGFTGMAYGFSSGRYRSDNDVIEGLTQPIKLLGVYFVIAFFAAQMFACFEYSHLDKCLAIMGADLLSSFEPAPLSALILFILFTAFINLIMVSATSKWAFMSFIFIPMFAQMGISPDVTQCAFRIGDSSTNAITPFLFYMPLVLTYMRQYDKQITYGSLLKYTWRYSLCILAAWTLLFIVWYLLKIPMGL | failed

Reference: a protein production outcome set (Wang et al. 2014)
